How the values were obtained:
c-Src SH2 = test: SH2 binding enrichment of the phosphorylated peptide, bacterial display (enrichment ratio); higher = better substrate or ligand; peptides without Tyr show the background
SHP2-C SH2 = test: as above
Grb2 SH2 = Grb2 SH2 (UniProt P62993); test: as above
Fes = Fes (UniProt P07332); test: phosphorylation enrichment, bacterial display (enrichment ratio); higher = better substrate or ligand; peptides without Tyr show the background
Fer (mouse) = test: as above
c-Abl (mouse) = test: as above
MERTK = MERTK (UniProt Q12866); test: as above
Sequence of MERTK (Q12866 whole entry, looked up): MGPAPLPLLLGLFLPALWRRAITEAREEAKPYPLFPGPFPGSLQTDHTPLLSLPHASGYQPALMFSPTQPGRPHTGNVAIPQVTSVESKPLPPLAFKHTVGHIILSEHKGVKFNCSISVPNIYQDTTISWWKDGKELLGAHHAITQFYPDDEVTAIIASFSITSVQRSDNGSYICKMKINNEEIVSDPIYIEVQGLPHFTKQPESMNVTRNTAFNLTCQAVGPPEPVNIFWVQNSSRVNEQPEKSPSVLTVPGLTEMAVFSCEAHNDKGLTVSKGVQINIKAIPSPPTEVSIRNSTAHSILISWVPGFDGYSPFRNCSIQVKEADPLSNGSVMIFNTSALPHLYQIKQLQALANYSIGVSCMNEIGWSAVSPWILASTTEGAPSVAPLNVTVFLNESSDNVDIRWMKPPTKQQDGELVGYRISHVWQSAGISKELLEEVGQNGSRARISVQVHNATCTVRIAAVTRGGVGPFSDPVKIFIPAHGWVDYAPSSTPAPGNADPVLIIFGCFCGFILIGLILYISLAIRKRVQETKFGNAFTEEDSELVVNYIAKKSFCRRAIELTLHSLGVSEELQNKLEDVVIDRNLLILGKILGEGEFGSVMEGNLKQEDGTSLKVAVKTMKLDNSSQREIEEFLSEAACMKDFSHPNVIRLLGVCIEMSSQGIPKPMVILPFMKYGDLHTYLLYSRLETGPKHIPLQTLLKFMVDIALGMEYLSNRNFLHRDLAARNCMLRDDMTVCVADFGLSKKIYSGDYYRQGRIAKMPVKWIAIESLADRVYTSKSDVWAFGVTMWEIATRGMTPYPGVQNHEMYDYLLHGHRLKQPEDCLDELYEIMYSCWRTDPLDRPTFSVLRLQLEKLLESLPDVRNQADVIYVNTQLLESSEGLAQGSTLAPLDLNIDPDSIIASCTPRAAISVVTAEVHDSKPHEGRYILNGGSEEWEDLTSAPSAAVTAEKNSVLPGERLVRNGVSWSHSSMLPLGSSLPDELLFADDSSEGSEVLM

c-Src = test: as above
AncSZ = test: as above
FGFR3 = FGFR3 (UniProt P22607); test: as above
Jak2 = Jak2 (UniProt O60674); test: as above
Fyn = Fyn (UniProt P06241); test: as above
Sequence of Fyn (P06241 whole entry, looked up): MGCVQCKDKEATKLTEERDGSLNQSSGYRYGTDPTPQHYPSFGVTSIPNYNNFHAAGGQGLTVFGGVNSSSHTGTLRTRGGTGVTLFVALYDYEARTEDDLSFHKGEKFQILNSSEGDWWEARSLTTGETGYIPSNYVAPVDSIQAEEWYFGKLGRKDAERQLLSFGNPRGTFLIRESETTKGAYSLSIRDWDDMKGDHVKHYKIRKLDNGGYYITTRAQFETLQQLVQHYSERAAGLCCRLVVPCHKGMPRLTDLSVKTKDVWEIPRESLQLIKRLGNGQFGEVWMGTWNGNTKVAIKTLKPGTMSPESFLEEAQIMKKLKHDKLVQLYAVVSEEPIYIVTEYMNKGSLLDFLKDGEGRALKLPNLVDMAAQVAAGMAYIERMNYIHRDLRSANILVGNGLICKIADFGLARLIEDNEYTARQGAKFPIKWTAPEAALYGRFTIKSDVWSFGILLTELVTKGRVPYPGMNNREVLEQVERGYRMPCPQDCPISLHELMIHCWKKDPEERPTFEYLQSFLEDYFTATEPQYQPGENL

FGFR1 = FGFR1 (UniProt P11362); test: as above
Hck = Hck (UniProt P08631); test: as above
EPHB2 = EPHB2 (UniProt P29323); test: as above
Sequence of EPHB2 (P29323 whole entry, looked up): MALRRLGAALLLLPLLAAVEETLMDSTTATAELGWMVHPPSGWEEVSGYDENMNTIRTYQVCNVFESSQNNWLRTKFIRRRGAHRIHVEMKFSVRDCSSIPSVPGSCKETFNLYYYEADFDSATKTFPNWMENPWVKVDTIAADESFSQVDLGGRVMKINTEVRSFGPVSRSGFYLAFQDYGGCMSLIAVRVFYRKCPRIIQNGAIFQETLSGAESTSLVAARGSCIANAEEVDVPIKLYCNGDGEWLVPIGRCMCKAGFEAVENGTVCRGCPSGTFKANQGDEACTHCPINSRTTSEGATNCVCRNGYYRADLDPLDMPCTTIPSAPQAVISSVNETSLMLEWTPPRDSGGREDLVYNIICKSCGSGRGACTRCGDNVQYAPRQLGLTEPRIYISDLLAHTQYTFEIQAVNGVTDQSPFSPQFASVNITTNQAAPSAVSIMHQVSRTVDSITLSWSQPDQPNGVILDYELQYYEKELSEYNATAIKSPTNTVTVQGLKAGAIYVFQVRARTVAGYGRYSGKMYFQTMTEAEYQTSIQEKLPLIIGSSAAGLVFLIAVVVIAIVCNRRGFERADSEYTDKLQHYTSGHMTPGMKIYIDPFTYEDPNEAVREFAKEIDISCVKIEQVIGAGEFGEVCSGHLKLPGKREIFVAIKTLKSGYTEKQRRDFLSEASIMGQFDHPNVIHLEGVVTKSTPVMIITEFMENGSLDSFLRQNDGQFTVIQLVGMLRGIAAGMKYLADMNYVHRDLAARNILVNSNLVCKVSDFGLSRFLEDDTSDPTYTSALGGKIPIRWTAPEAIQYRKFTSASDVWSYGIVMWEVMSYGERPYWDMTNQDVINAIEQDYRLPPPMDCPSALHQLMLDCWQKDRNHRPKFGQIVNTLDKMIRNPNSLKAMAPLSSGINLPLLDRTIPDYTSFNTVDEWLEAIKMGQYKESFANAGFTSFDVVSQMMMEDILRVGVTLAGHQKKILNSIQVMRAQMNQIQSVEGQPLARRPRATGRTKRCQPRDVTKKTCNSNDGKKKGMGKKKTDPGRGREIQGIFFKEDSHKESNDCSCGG

EPHB1 = EPHB1 (UniProt P54762); test: as above
Sequence of EPHB1 (P54762 whole entry, looked up, the tested form may be a part): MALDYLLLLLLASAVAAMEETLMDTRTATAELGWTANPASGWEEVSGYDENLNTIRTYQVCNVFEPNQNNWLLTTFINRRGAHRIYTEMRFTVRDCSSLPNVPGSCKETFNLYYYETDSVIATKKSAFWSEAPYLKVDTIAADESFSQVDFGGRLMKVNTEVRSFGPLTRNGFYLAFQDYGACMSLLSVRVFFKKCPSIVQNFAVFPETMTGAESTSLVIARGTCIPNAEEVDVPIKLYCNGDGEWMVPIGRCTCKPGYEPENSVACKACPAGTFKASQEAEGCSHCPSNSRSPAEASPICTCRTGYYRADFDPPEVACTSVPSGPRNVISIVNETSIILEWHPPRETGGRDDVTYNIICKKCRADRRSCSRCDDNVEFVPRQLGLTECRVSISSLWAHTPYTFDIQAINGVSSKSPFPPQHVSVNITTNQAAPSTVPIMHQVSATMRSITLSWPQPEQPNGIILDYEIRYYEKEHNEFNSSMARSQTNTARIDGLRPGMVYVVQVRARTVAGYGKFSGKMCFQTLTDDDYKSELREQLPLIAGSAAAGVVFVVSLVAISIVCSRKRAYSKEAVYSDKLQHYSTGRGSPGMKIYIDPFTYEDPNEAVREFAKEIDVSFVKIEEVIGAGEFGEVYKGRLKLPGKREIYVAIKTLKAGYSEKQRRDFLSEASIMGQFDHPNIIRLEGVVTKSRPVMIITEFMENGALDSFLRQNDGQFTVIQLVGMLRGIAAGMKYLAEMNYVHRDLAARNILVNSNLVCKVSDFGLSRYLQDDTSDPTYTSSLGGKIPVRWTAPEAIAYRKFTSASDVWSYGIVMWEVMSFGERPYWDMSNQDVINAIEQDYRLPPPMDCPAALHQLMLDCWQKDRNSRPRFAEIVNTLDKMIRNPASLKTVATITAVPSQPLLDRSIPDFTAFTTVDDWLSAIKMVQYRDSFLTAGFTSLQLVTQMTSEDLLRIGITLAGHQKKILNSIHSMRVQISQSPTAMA
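For SH2 binding enrichment of the phosphorylated peptide, bacterial display in this document: peptide library displayed on the E. coli surface as eCPX fusions, selected cells deep-sequenced, score is each peptide's frequency after selection divided by its frequency in the input.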
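For phosphorylation enrichment, bacterial display in this document: 11-residue human phosphosite peptides and single-mutation variants displayed on the E. coli surface, counted by deep sequencing, each peptide's frequency after selection divided by its frequency in the unselected input library; frequency after pTyr selection over input frequency; kinase dosed for 20-30% of maximal phosphorylation in three min.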

Sequence of Fes (P07332 whole entry, looked up): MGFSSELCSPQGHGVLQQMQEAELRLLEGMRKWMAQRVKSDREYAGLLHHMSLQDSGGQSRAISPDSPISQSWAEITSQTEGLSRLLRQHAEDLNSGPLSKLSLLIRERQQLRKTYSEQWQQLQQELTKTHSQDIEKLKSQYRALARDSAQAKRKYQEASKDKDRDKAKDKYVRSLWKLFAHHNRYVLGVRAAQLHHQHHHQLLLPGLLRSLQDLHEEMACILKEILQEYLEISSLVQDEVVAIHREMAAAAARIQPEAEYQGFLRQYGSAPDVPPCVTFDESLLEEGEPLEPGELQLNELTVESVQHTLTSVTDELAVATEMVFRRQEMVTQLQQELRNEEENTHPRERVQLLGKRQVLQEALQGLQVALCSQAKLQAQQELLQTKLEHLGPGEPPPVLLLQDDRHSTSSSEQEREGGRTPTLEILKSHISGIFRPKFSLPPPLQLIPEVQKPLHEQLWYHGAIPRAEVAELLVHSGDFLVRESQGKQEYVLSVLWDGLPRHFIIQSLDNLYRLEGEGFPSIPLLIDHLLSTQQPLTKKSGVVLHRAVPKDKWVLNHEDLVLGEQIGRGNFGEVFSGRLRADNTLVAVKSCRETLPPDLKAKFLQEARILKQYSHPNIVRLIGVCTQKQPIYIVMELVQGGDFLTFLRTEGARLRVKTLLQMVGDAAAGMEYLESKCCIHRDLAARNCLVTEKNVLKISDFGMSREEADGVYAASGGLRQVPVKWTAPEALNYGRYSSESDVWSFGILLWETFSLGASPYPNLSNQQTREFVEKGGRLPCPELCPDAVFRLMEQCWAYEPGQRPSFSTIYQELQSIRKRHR
Sequence of Grb2 SH2 (P62993 whole entry, looked up): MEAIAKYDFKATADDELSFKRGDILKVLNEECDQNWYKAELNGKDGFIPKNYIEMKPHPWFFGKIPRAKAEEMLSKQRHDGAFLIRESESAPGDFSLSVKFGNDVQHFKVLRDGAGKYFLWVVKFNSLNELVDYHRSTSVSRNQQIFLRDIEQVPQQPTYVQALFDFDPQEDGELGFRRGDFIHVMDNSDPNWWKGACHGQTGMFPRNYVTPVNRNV

Sequence | SH2 binding enrichment (c-Src SH2) | SH2 binding enrichment (SHP2-C SH2) | SH2 binding enrichment (Grb2 SH2) | phosphorylation enrichment (Fes) | phosphorylation enrichment (Fer (mouse)) | phosphorylation enrichment (c-Abl (mouse)) | phosphorylation enrichment (MERTK) | phosphorylation enrichment (c-Src) | phosphorylation enrichment (AncSZ) | phosphorylation enrichment (FGFR3) | phosphorylation enrichment (Jak2) | phosphorylation enrichment (Fyn) | phosphorylation enrichment (FGFR1) | phosphorylation enrichment (Hck) | phosphorylation enrichment (EPHB2) | phosphorylation enrichment (EPHB1)
TCFDKYTGNTF [FN1_Y101_YF] | 0.412 | 0.98 | 0.625 | 1.18 | 0.647 | 0.93 | 0.501 | 0.544 | 1.35 | 0.92 | 1.16 | 0.563 | 0.508 | 0.567 | 0.772 | 0.813
VTAALYGCLFE [BTD_Y536_R538C_YF] | 0.52 | 0.606 | 0.85 | 1.55 | 1.1 | 1.02 | 1.54 | 4.03 | 1.3 | 0.998 | 1.13 | 5.63 | 0.602 | 3.97 | 1.03 | 0.916
LEVPLYKNGVK [CPS1_Y1069_A1065E] | 0.472 | 0.491 | 0.845 | 0.997 | 0.66 | 0.693 | 0.625 | 0.321 | 1.28 | 1.11 | 0.643 | 0.759 | 0.944 | 0.655 | 0.43 | 0.715
GDPTEYFITAI [IGSF22_Y501_S503I_YF] | 0.499 | 0.467 | 0.786 | 1.08 | 0.404 | 0.911 | 0.482 | 0.555 | 1.55 | 1.11 | 1.31 | 0.445 | 1.07 | 0.461 | 0.644 | 0.584
ITRDEYPSNPM [CEMIP2_Y1015] | 0.475 | 0.629 | 0.717 | 0.589 | 0.344 | 0.414 | 0.329 | 0.345 | 0.688 | 0.467 | 0.497 | 0.413 | 0.426 | 0.352 | 0.369 | 0.413
SGIYQYNIAKF [FOXL2_Y83_I84N] | 1.01 | 0.875 | 0.976 | 0.732 | 14.7 | 4.58 | 9.83 | 3.79 | 0.898 | 0.605 | 0.593 | 3.42 | 0.659 | 4.76 | 1.56 | 2.14
VHNLDYFKMTT [FGFR3_Y647_K650M_YF] | 0.56 | 0.556 | 0.995 | 0.653 | 0.325 | 0.521 | 0.356 | 0.397 | 1.06 | 4.21 | 7.7 | 0.33 | 7 | 0.394 | 0.383 | 0.456
GVFSRHFTTFD [CLCA1_Y661_Y661H_YF] | 1.78 | 0.612 | 0.674 | 1.05 | 0.946 | 0.346 | 0.166 | 0.184 | 1.31 | 0.814 | 0.483 | 0.48 | 0.644 | 1.03 | 1.1 | 0.953
FCVVRYCWLRR [MPZ_Y181_Y177C] | 0.539 | 0.515 | 0.581 | 0.76 | 0.404 | 0.773 | 0.656 | 0.738 | 0.718 | 0.709 | 0.586 | 0.606 | 0.552 | 0.577 | 0.603 | 0.45
TVHCDYLNIPH [TAF1L_Y1385] | 0.718 | 0.676 | 2.18 | 1.02 | 0.46 | 0.521 | 0.442 | 0.718 | 0.959 | 3.97 | 0.941 | 0.464 | 6.63 | 0.55 | 0.706 | 3.02
AAVDEYLEFRR [FAM221A_Y17_YF] | 0.559 | 0.496 | 0.926 | 0.963 | 0.421 | 0.722 | 0.409 | 1.28 | 1.14 | 0.531 | 0.756 | 0.949 | 0.601 | 1.47 | 0.517 | 0.395
MSRDIYSTDFF [NTRK1_Y676_YF] | 0.512 | 1.09 | 1.01 | 1.04 | 1.63 | 0.631 | 10.4 | 5.13 | 0.852 | 1.65 | 0.726 | 6.12 | 2.6 | 4.34 | 6.8 | 5.71
RRIHSYRGQLW [VHL_Y112_H115Q] | 0.343 | 0.45 | 0.637 | 0.813 | 0.617 | 0.906 | 0.535 | 0.776 | 1.25 | 0.596 | 0.925 | 0.883 | 0.536 | 0.664 | 0.438 | 0.491
KVVQEYERVII [NPHS2_Y131] | 0.564 | 0.653 | 0.811 | 0.956 | 3.84 | 0.757 | 0.435 | 0.457 | 1.09 | 0.719 | 0.801 | 0.485 | 0.633 | 0.563 | 2.79 | 3.17
DLAGRYYALKS [CKB_Y173] | 1.47 | 0.722 | 0.824 | 0.878 | 0.597 | 0.577 | 1.65 | 0.571 | 0.572 | 0.85 | 1.58 | 0.538 | 1.04 | 0.726 | 0.419 | 0.406
VPLLEYYRDIF [CDAN1_Y712] | 1.05 | 0.968 | 0.911 | 1.24 | 0.544 | 0.728 | 0.441 | 0.553 | 0.998 | 2.83 | 2.64 | 0.444 | 3.63 | 0.508 | 0.647 | 0.564
VKPHRYRPGTV [H3-5_Y41] | 0.486 | 0.671 | 0.781 | 0.573 | 0.362 | 0.613 | 0.456 | 0.434 | 0.513 | 0.346 | 0.494 | 0.386 | 0.407 | 0.328 | 0.337 | 0.378

Sequence | SH2 binding enrichment (c-Src SH2) | SH2 binding enrichment (SHP2-C SH2) | SH2 binding enrichment (Grb2 SH2) | phosphorylation enrichment (Fes) | phosphorylation enrichment (Fer (mouse)) | phosphorylation enrichment (c-Abl (mouse)) | phosphorylation enrichment (MERTK) | phosphorylation enrichment (c-Src) | phosphorylation enrichment (AncSZ) | phosphorylation enrichment (FGFR3) | phosphorylation enrichment (Jak2) | phosphorylation enrichment (Fyn) | phosphorylation enrichment (FGFR1) | phosphorylation enrichment (Hck) | phosphorylation enrichment (EPHB2) | phosphorylation enrichment (EPHB1)
GSRGKCSSGFR [ATM_Y332_Y332C] | 0.915 | 0.713 | 1.06 | 0.558 | 0.433 | 0.709 | 0.411 | 0.387 | 0.471 | 0.423 | 0.532 | 0.395 | 0.403 | 0.464 | 0.379 | 0.41
QSSALYEDCYL [ASS1_Y83_R86C] | 0.86 | 0.514 | 0.863 | 2.95 | 16.9 | 1.35 | 3.43 | 3.61 | 1.82 | 1.02 | 1.5 | 3 | 0.788 | 1.84 | 7.55 | 12.4
PGAPAYCVLME [MYO5A_Y1245_R1246C] | 0.883 | 0.549 | 0.628 | 1.44 | 0.876 | 1.27 | 4.03 | 0.964 | 1.64 | 1.64 | 1.25 | 1.12 | 1.58 | 1.38 | 1.5 | 3.07
HKLSFYEFDFE [BTK_Y40_YF] | 3.27 | 0.846 | 0.911 | 1.73 | 0.919 | 1.51 | 1.75 | 1.24 | 1.73 | 1.36 | 2.92 | 1.66 | 1.01 | 0.989 | 0.786 | 0.752
IGHHAYGDQFR [IDH1_Y135_R132H_YF] | 0.487 | 0.659 | 0.885 | 0.618 | 0.371 | 0.516 | 0.397 | 0.373 | 0.63 | 0.477 | 0.503 | 0.346 | 0.414 | 0.381 | 0.417 | 0.444
DTFDPYLDIAL [USP36_Y268_V271I_YF] | 0.487 | 0.548 | 0.944 | 1.52 | 1.08 | 0.727 | 0.527 | 0.832 | 1.25 | 1 | 1.39 | 0.692 | 0.783 | 0.577 | 0.589 | 0.73
FFCRWYRNQKS [EREG_Y144_R147Q_YF] | 0.496 | 0.657 | 0.603 | 0.6 | 0.513 | 0.855 | 0.497 | 0.57 | 0.775 | 0.478 | 0.488 | 0.482 | 0.347 | 0.596 | 0.489 | 0.493
YMKEPYIQSRF [HIPK4_Y175_V171M] | 0.865 | 0.832 | 1.12 | 0.703 | 0.488 | 0.632 | 0.659 | 0.563 | 0.622 | 0.623 | 0.855 | 0.461 | 0.611 | 0.36 | 0.392 | 0.364
GKSFIYAAFHA [KCNT1_Y563_T562I] | 0.685 | 1 | 0.893 | 1.25 | 0.672 | 2.75 | 1.72 | 3.84 | 1.18 | 0.805 | 1.32 | 4.67 | 0.452 | 2.83 | 0.522 | 0.787
TEDELYQLSLQ [RASGRP2_Y378] | 0.412 | 0.563 | 0.661 | 1.27 | 2.94 | 0.928 | 0.542 | 1.33 | 1.9 | 0.759 | 1.04 | 0.93 | 0.476 | 0.896 | 0.677 | 0.717
VHNLDYFKETT [FGFR3_Y647_K650E_YF] | 0.457 | 0.668 | 1.11 | 0.854 | 0.438 | 0.598 | 0.425 | 0.445 | 0.853 | 0.614 | 0.723 | 0.437 | 0.597 | 0.446 | 0.5 | 0.469
KFVKMYDNHQL [MYO9A_Y203_YF] | 0.891 | 0.502 | 0.79 | 0.572 | 0.458 | 0.438 | 0.532 | 0.378 | 0.586 | 0.512 | 0.402 | 0.377 | 0.418 | 0.424 | 0.482 | 0.442
EQLRAYLEGTC [HLA-C_Y183] | 0.561 | 0.707 | 0.844 | 1.08 | 0.558 | 0.53 | 0.403 | 0.423 | 1.02 | 0.692 | 0.866 | 0.453 | 0.843 | 0.55 | 0.591 | 0.467
TVFSDYLHPQF [CCPG1_Y569_YF] | 0.591 | 0.757 | 0.667 | 1.22 | 0.43 | 1.53 | 0.805 | 1.07 | 4.45 | 0.938 | 1.83 | 0.69 | 1.03 | 0.643 | 0.573 | 1.02
GGGGGYNCSSG [FUS_Y232_R234C] | 0.574 | 0.613 | 0.928 | 0.666 | 0.415 | 0.534 | 0.342 | 0.355 | 0.563 | 0.626 | 0.614 | 0.41 | 0.378 | 0.411 | 0.432 | 0.402
VFAPDYIAGVS [NOB1_Y366] | 0.544 | 0.755 | 0.927 | 1.38 | 0.647 | 0.844 | 0.547 | 0.55 | 1.05 | 0.807 | 0.934 | 0.585 | 0.537 | 0.651 | 0.646 | 0.657
